Assay [1] has as its target Dopamine receptor D2 (D2R) peptide (N430-R443). The experiment in a line: ITC; MicroCal VP-ITC; 50 μM D2R peptide in the cell titrated with NCS-1; 25°C; 20 mM Tris-HCl pH 8.0, 150 mM NaCl, 5 mM CaCl2 and 100 μM ZnCl2; one set of sites model.
For assay [2] the target is unchanged. The experiment in a line: ITC; MicroCal VP-ITC; 50 μM D2R peptide in the cell titrated with NCS-1 (1 mM stock, thirty 10 μl injections); 25°C; 20 mM Tris-HCl pH 8.0, 150 mM NaCl, 5 mM CaCl2; one set of sites model.
The target of assay [3] is GST-tagged N-terminal fragment of GRK1 (M1-G183) (UniProt P28327). The assay can be described thus: pull-down; 50 μg GST-N-GRK1 immobilised on Glutathione Sepharose; 25 μM NCS-1 applied; 20 mM Tris pH 8.0, 150 mM NaCl, 1 mM DTT, 1 mM CaCl2 and 0-100 μM ZnCl2; 1 h at 4°C; bound NCS-1 detected by western blotting.
UniProt P28327, sequence (P28327 1-183): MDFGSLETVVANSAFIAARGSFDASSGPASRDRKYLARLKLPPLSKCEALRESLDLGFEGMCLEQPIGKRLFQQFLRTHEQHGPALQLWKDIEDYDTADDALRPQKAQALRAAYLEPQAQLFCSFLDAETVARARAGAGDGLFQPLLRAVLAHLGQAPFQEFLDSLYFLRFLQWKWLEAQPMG

In assay [1], “Neuronal calcium sensor-1 (recombinant myristoylated NCS-1) (from UniProt P62166 1-190) (natural protein)” yielded a Ka of 118000 M⁻¹, a Kd of 8.47 µM, a dH of -3.2 kcal/M and a stoichiometry N of 0.508. Also, in assay [2], the Ka came to 33200 M⁻¹, the Kd was found to be 30.1 µM, the dH is -3 kcal/M and the stoichiometry N came to 0.676. Besides, in assay [3], the fold change of binding with 25 μM Zn^2+ against no Zn^2+ came out at 2 fold.

Source of the values: publication PMC6302015.
